Assay results from article PMC10573690 (International Journal of Molecular Sciences, 2023).

T1: biotinylated EMPD-characteristic peptide (Homo sapiens, synthetic peptide of the …, biotin on the C-terminal lysine (K-biotin))
T1 construct: added C-terminal lysine that carries the biotin; Held on streptavidin sensors or plates through the biotin; also called synthetic peptide ligand representing a section of the human EMPD; model peptide; source: synthetic peptide; bought: Fisher Scientific
T1 chain: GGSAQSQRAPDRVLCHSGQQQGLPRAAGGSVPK

B1: quilizumab (antibody, V domains shown)
VH: EVQLVESGGGLVQPGGSLRLSCAASGFTFSDYGIAWVRQAPGKGLEWVAFISDLAYTIYYADTVTGRFTISRDNSKNTLYLQMNSLRAEDTAVYYCARDNWDAMDYWGQGTLVTVSS
VL: DIQMTQSPSSLSASVGDRVTITCRSSQSLVHNNANTYLHWYQQKPGKAPKLLIYKVSNRFSGVPSRFSGSGSGTDFTLTISSLQPEDFATYYCSQNTLVPWTFGQGTKVEIK
B2: ligelizumab (antibody, V domains shown)
VH: QVQLVQSGAEVMKPGSSVKVSCKASGYTFSWYWLEWVRQAPGHGLEWMGEIDPGTFTTNYNEKFKARVTFTADTSTSTAYMELSSLRSEDTAVYYCARFSHFSGSNYDYFDYWGQGTLVTVSS
VL: EIVMTQSPATLSVSPGERATLSCRASQSIGTNIHWYQQKPGQAPRLLIYYASESISGIPARFSGSGSGTEFTLTISSLQSEDFAVYYCQQSWSWPTTFGGGTKVEIK
notes: whole heavy chain, IgG1 format; whole light chain; IgG1; made in house; source: HEK293-6E, transfected, purified from supernatant (Protein A)
B3: 15cl12, chimeric antibody with human constant domains (antibody, V domains shown)
VH: QIQLQQSGAELVKPGASVKLSCKASGYTFTSYDINWVRQRPERGLDWIGWIFPGDGSSKYNENFKGKATLTTDKSSNTAYIHLSRLTSEDSAVYFCARWGKTFDYWGQGTTLTVSS
VL: DIVMSQSPSSLAVSVGEKVTMSCKSSQSLLYSRDQKNYLAWFQQKPGQSPKLLIYWASARESGVPDRFTGSGSGTDFTLTITSLKTEDLAVYYCQQFYNYPRTFGGGTKLEIK
B4: 15cl12_L328C coupled with MC-Val-Cit-PAB-MMAE (antibody-drug conjugate) (antibody, V domains shown)
VH: B3 VH
VL: B3 VL

Key:
[1] = molecular target: T2, IgE-Fc-B-cell receptor construct (3×FLAG tag-Cε2-Cε3-Cε4-EMPD-transmembrane-intracellular domain) on Edox … (Homo sapiens, UniProt P01854, strain); test: cell-based or functional assay
Target sequence in this assay (P01854 whole entry, looked up, change not shown, the tested form may be a part): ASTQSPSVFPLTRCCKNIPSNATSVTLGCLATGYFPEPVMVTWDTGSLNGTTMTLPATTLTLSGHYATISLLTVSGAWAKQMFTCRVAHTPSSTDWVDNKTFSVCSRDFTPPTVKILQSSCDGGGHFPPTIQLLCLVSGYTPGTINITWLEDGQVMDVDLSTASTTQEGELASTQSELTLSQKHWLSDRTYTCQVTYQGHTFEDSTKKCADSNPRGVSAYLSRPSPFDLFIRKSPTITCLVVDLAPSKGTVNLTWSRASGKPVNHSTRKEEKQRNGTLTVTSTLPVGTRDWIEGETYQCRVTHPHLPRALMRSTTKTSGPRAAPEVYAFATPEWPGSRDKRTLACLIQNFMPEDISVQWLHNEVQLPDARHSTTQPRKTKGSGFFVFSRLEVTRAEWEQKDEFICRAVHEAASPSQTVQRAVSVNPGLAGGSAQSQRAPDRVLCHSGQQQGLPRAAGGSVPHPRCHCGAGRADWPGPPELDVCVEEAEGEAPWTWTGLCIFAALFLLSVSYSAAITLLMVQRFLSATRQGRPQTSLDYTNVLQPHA

[2] = molecular target: T2, IgE-Fc-B-cell receptor construct …; test: flow cytometry on cells; doxycycline-induced Edox cells, antibodies in graded concentrations, 30 min on ice in 2% BSA-PBS; detection with anti-human kappa light chain-FITC; settings: one partner purified
Target sequence in this assay (P01854 429-546, change not shown): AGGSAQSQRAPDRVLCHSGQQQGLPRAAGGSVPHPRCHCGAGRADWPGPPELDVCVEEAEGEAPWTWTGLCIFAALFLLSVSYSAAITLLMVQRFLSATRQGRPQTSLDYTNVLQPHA

[3] = molecular target: T1, biotinylated EMPD-characteristic peptide; test: BLI; biotinylated EMPD peptide on streptavidin sensors (5 µg/mL); antibodies in two-fold dilutions from 250 nM; PBS with 1× Kinetics buffer, 25 °C; steady state value; settings: both partners purified
[4] = molecular target: T1, biotinylated EMPD-characteristic peptide; test: ELISA; biotinylated EMPD peptide on streptavidin plate (30 nM); antibodies in 3-fold dilutions from 45 nM in 2% BSA-PBS, RT; detection with anti-human kappa chain-HRP; settings: both partners purified

Binder | decrease of surface Fcε (anti-FLAG staining, flow cytometry) on Edox cells after 4 h at 37 °C against incubation on ice [1] [%] | EC50 [2] [nM] | Kd [3] [nM] | EC50 [4] [nM]
B1 | ~70 |  |  | 
B2 | > 80 | ~0.1 |  | 
B3 | > 80 | 4 | 11 | 
B4 |  | ~8 | 7.5 | 0.23
